This note sets out measurements from patent US20240255509A1, “COMPOSITIONS AND METHODS RELATED TO K180 DIMETHYLATED H1.0 PROTEIN” (Aelan Cell Technologies, Inc., priority 2016, published 2024).

Common to all, as to experiment: In vitro methylation with GLP, products identified by LC-MS
Holding throughout (assay type): biochemical

Assay [1] has as its target T1, recombinant human H1.0 protein (Homo sapiens, UniProt P07305).
T1 construct: full-length recombinant human H1.0 (NEB, M2501S); purchased NEB M2501S (H1.0); M0235S (G9A)
The following applies: 1 μg full-length protein. Here is the method: (§1) In order to identify the precise sites of methylation by G9A and GLP methyltransferases on histone H1.0, in vitro methylation assays were performed and subsequently analyzed by Liquid Chromatography and High-resolution Mass Spectrometry (LC-MS) analysis. Methylation reactions were set up using either G9A methyltransferase (NEB, M0235S, Lot #0031201) or GLP methyltransferase (Cayman Chemical, 10755). The methyl donor in each reaction was unlabeled S-Adenosyl-L-Methionine (NEB, B9003S). […]
(§2) For the Liquid Chromatography and High-resolution Mass Spectrometry (LC-MS) analysis, samples were prepared as described above and about 1 μg o the product was injected onto a Thermo Scientific Easy nLC system configured with a 10 cm×100 um trap column and a 25 cm×100 um ID resolving column. […] This ensured optimal full-scan data for quantification. […]
(§3) Protein identification was performed using Thermo Scientific Proteome Discoverer version 1.4 (including Sequest and Percolator algorithms) using RefSeqHuman sequence database. […] Protein quantification was performed using Pinpoint version 1.4 software. The Pinpoint quantification workflow included importing the Proteome Discoverer .msf files as spectral libraries. Identified peptides were subsequently quantified in MS .raw files using the Pinpoint peak finding, chromatographic alignment and area calculation algorithms. […]

The target of assay [2] is T2, K180 dimethylated H1.0 peptide (SEQ ID NO:3) (Homo sapiens, UniProt P07305).
T2 construct: purchased ThermoFisher Scientific (peptide); Cayman Chemical (GLP) 10755 (GLP)
The following applies: K180 dimethylated peptide as substrate. The method, then:
as §1, §2, §3

The target of assay [3] is T3, unmodified H1.0 peptide ([…] (SEQ ID NO:42)) (Homo sapiens, UniProt P07305).
T3 construct: purchased ThermoFisher Scientific (peptide); NEB (G9A) M0235S (G9A)
The following applies: 10 U enzyme, 3.2 mM S-Adenosyl-L-Methionine, 37° C. 1 hour, spectral counts. The method, then:
as §1, §2, §3

B1: GLP: recombinant G9A-like protein (GLP) methyltransferase (Cayman Chemical, 10755) (protein, UniProt Q9H9B1 2-1298, looked up)
Histone-lysine …: AAADAEAVPARGEPQQDCCVKTELLGEETPMAADEGSAEKQAGEAHMAADGETNGSCENSDASSHANAAKHTQDSARVNPQDGTNTLTRIAENGVSERDSEAAKQNHVTADDFVQTSVIGSNGYILNKPALQAQPLRTTSTLASSLPGHAAKTLPGGAGKGRTPSAFPQTPAAPPATLGEGSADTEDRKLPAPGADVKVHRARKTMPKSVVGLHAASKDPREVREARDHKEPKEEINKNISDFGRQQLLPPFPSLHQSLPQNQCYMATTKSQTACLPFVLAAAVSRKKKRRMGTYSLVPKKKTKVLKQRTVIEMFKSITHSTVGSKGEKDLGASSLHVNGESLEMDSDEDDSEELEEDDGHGAEQAAAFPTEDSRTSKESMSEADRAQKMDGESEEEQESVDTGEEEEGGDESDLSSESSIKKKFLKRKGKTDSPWIKPARKRRRRSRKKPSGALGSESYKSSAGSAEQTAPGDSTGYMEVSLDSLDLRVKGILSSQAEGLANGPDVLETDGLQEVPLCSCRMETPKSREITTLANNQCMATESVDHELGRCTNSVVKYELMRPSNKAPLLVLCEDHRGRMVKHQCCPGCGYFCTAGNFMECQPESSISHRFHKDCASRVNNASYCPHCGEESSKAKEVTIAKADTTSTVTPVPGQEKGSALEGRADTTTGSAAGPPLSEDDKLQGAASHVPEGFDPTGPAGLGRPTPGLSQGPGKETLESALIALDSEKPKKLRFHPKQLYFSARQGELQKVLLMLVDGIDPNFKMEHQNKRSPLHAAAEAGHVDICHMLVQAGANIDTCSEDQRTPLMEAAENNHLEAVKYLIKAGALVDPKDAEGSTCLHLAAKKGHYEVVQYLLSNGQMDVNCQDDGGWTPMIWATEYKHVDLVKLLLSKGSDINIRDNEENICLHWAAFSGCVDIAEILLAAKCDLHAVNIHGDSPLHIAARENRYDCVVLFLSRDSDVTLKNKEGETPLQCASLNSQVWSALQMSKALQDSAPDRPSPVERIVSRDIARGYERIPIPCVNAVDSEPCPSNYKYVSQNCVTSPMNIDRNITHLQYCVCIDDCSSSNCMCGQLSMRCWYDKDGRLLPEFNMAEPPLIFECNHACSCWRNCRNRVVQNGLRARLQLYRTRDMGWGVRSLQDIPPGTFVCEYVGELISDSEADVREEDSYLFDLDNKDGEVYCIDARFYGNVSRFINHHCEPNLVPVRVFMAHQDLRFPRIAFFSTRLIEAGEQLGFDYGERFWDIKGKLFSCRCGSPKCRHSSAALAQRQASAAQEAQEDGLPDTSSAAAADPL
B1: in assay [1], the “sites of methylation on full-length H1.0” value is on record as “methylates a large number of lysine residues on the C-terminal tail of H1.0, lacking the specificity of G9A”. Also, the “peptides further methylated (H1.0K180 and H1.0K174), % of peptides” value in assay [2] is recorded as 1.02%. Also, the “peptides dimethylated at H1.0K180, % of all peptides” value in assay [3] is 96.6%.
